# According to patent publication US11306156:
# Tests used:
# [1] = molecular target: tissue factor (TF) antigen (UniProt P13726); assay: SPR (ProteOn XPR36), Fab captured on anti-penta-His surface, TF injected as analyte, 1:1 fit; batch C (marked +)
# [2] = molecular target: tissue factor (TF) antigen (UniProt P13726); assay: SPR (ProteOn XPR36), Fab captured on anti-penta-His surface, TF injected as analyte, 1:1 fit; batch C (marked +); reference wild-type D3H44 Fab
# [3] = molecular target: tissue factor (TF) antigen (human (from the antibody's name 'anti-human tissue factor'; not stated for the antigen lot in the assay)) (UniProt P13726); assay: SPR (ProteOn XPR36), Fab captured on anti-penta His, TF analyte; against wild-type D3H44 Fab; batch C (+)
# [4] = molecular target: tissue factor (TF) antigen (human (from the antibody's name 'anti-human tissue factor'; not stated for the antigen lot in the assay)) (UniProt P13726); assay: SPR (ProteOn XPR36): Fab captured via His tag on anti-penta His surface, TF injected, 1:1 fit; batch C (+)
# [5] = molecular target: tissue factor (TF) antigen (UniProt P13726); assay: SPR, His-captured Fab, TF as analyte, 1:1 fit; batch C (+)
# [6] = molecular target: tissue factor (TF) antigen (UniProt P13726); assay: SPR, His-captured Fab, TF as analyte; against wild-type D3H44 Fab; batch C (+)
# [7] = molecular target: tissue factor (TF) antigen (UniProt P13726); assay: SPR (ProteOn XPR36), Fab captured on anti-penta His surface, TF injected, 1:1 fit
# [8] = molecular target: tissue factor (TF) antigen (UniProt P13726); assay: SPR (ProteOn XPR36), Fab captured on anti-penta His surface, TF injected, 1:1 fit; reference wild-type D3H44 Fab
# [9] = molecular target: tissue factor (TF) antigen (UniProt P13726); assay: SPR, ProteOn XPR36; His-tagged Fab captured on anti-penta-His, TF injected; 1:1 fit; batch C (+)
# [10] = molecular target: tissue factor (TF) antigen (UniProt P13726); assay: SPR as for KD; reference: wild-type D3H44 Fab; batch C (+)
# [11] = molecular target: tissue factor (TF) antigen (UniProt P13726); assay: SPR (ProteOn XPR36), Fab captured on anti-penta His surface, TF injected, 1:1 fit; batch C ('+'); reference wild-type D3H44 Fab
# [12] = molecular target: tissue factor (TF) antigen (UniProt P13726); assay: SPR (ProteOn XPR36), Fab captured on anti-penta His surface, TF injected, 1:1 fit; batch C ('+')
# [13] = molecular target: tissue factor (TF) antigen (UniProt P13726); assay: SPR, Fab captured on anti-penta His surface, TF as analyte, 1:1 fit
# [14] = molecular target: tissue factor (TF) antigen (UniProt P13726); assay: SPR (ProteOn), Fab captured via anti-penta-His, TF injected, 1:1 fit
# [15] = molecular target: tissue factor (TF) antigen (UniProt P13726); assay: SPR (ProteOn), Fab captured via anti-penta-His, TF injected, 1:1 fit; reference wild-type D3H44 Fab
# [16] = molecular target: tissue factor (TF) antigen (UniProt P13726); assay: SPR, Fab captured on anti-penta-His, TF as analyte; against wild-type D3H44 Fab
# [17] = molecular target: tissue factor (TF) antigen (UniProt P13726); assay: SPR, Fab captured on anti-penta-His, TF as analyte, 1:1 fit
# [18] = molecular target: D3H44 light chain Q124E_V133G_S176D_T178D_T180E; assay: LCCA (co-expression, SPR tag read-out), L1:L2 DNA 1:3 normalised to 1:1; competing light chain m7
# [19] = molecular target: D3H44 light chain Q124E_V133G_S176D_T178D_T180E; assay: LCCA (co-expression, SPR tag read-out), L1:L2 DNA 1:3 normalised to 1:1; competing light chain m8
substance,measurement,setting,value
"D3H44 H1L1 Fab heterodimer, H1 Q39R_D146G_H172R_Q179K, L1 Q38E_Q124E_Q160E_T180E",Kd,[1],0.07 nM
same,Change in median KD of h1l1 Fab heterodimer compared to wild type (-(log(KD design)-log(KD wt))) (log(KD) difference),[2],0.38
"D3H44 Fab heterodimer, H1 Q39E_K145T_Q179E / L1 Q38R_S131K (H1L1 Fab of LCCA set 9814)",Change in median values of KD of h1l1 Fab heterodimer compared to wild type (-(log(KD design)-log(KD wt))),[3],-0.01
same,Kd,[4],0.16 nM
D3H44 Fab heterodimer H1L1 of LCCA Set # 9813 (H1 Q39E_K145T_H172R_Q179E; L1 Q38R_S131K),Kd,[5],0.18 nM
same,Change in median values of KD compared to wild type (-(log(KD design)-log(KD wt))),[6],-0.05 log
"D3H44 Fab heterodimer, H1 Q39E_L143E_K145T_H172R_Q179E / L1 Q38R_Q124R_Q160K_T178R (H1L1 Fab of LCCA set 9819)",Change in median values of KD of h1l1 Fab heterodimer compared to wild type (-(log(KD design)-log(KD wt))),[3],0.03
same,Kd,[4],0.15 nM
"D3H44 Fab heterodimer, H1 L124R_S186K / L1 Q124E_V133G_S176D_T178D_T180E (H1L1 Fab of LCCA Sets # 9451, 9459, 9460, 9461, 9449)",Kd,[7],0.26 nM
same,Change in median values of KD of h1l1 Fab heterodimer compared to wild type (-(log(KD design)-log(KD wt))),[8],-0.23
"D3H44 Fab heterodimer, H1L1 of LCCA Sets # 9881 and 9882 (H1 S186R; L1 Q124E_S131T_T178F_T180E)",Kd,[9],0.11 nM
same,"change in median KD compared to wild type, -(log(KD design)-log(KD wt))",[10],0.15
"D3H44 Fab heterodimer, H1 Q179R / L1 S131E (H1L1 Fab of LCCA Set # 9984)",Change in median values of KD of h1l1 Fab heterodimer compared to wild type (-(log(KD design)-log(KD wt))),[11],0
same,Kd,[12],0.16 nM
D3H44 Fab heterodimer H1L1 of LCCA Set # 9848 and 9847 (H1 S186K; L1 Q124E_S176L_T180E),Kd,[5],0.15 nM
same,Change in median values of KD compared to wild type (-(log(KD design)-log(KD wt))),[6],0.03 log
"D3H44 H1L1 Fab heterodimer, H1 Q39E_L143E_K145T_Q179E, L1 Q38R_Q124R_Q160K_T178R",Kd,[1],0.2 nM
same,Change in median KD of h1l1 Fab heterodimer compared to wild type (-(log(KD design)-log(KD wt))) (log(KD) difference),[2],-0.1
"D3H44 Fab heterodimer, H1 Q39E_L143E_K145T_H172R / L1 Q38R_Q124R_Q160K_T178R (H1L1 Fab of LCCA set 9818)",Change in median values of KD of h1l1 Fab heterodimer compared to wild type (-(log(KD design)-log(KD wt))),[3],-0.07
same,Kd,[4],0.18 nM
"D3H44 Fab heterodimer, H1L1 of LCCA Set # 9611 (H1 L143E_K145T_H172R; L1 Q124R_Q160K_T178R)",Kd,[9],0.12 nM
same,"change in median KD compared to wild type, -(log(KD design)-log(KD wt))",[10],0.12
same,Change in KD with respect to wild type (-(log(KD design) - log(KD wt))),[13],0.12
same,Kd,[13],0.12 nM
"D3H44 Fab heterodimer, H1 L124R_S186K / L1 V133G_S176D_T178D_T180E (H1L1 Fab of LCCA Sets # 9484, 9481, 9483)",Kd,[7],0.18 nM
same,Change in median values of KD of h1l1 Fab heterodimer compared to wild type (-(log(KD design)-log(KD wt))),[8],-0.07
"D3H44 Fab heterodimer (H1L1) of LCCA Set # 9397: H1 L124R_Q179K, L1 V133G_Q160E_S176D_T180E",Kd,[14],0.19 nM
same,"change in median KD compared to wild type, -(log(KD design)-log(KD wt))",[15],-0.08
"D3H44 Fab heterodimer, H1 L124A_L143F_Q179K / L1 Q124E_V133W_S176T_T178L_T180E (H1L1 Fab of LCCA Set # 9096, 9095 and 9094)","change in median KD compared to wild type, -(log(KD design)-log(KD wt))",[16],-0.04
same,Kd,[17],0.17 nM
D3H44 Fab heavy chain L124R_S186R,H2L2:H2L1 normalized median ratio,[18],92 parts of 100
same,H2L2:H2L1 normalized median ratio,[19],95 parts of 100
